According to patent US20120207760A1:
Several values for one entry are separate records, joined by “and”; a condition that tells them apart may be missing. Equal values may be shown once.

What was measured:
[1] = biological target: recombinant homotrimeric HA, A/northern shoveler/California/HKWF115/07 (Influenza A virus A/northern shoveler/California/HKWF115/2007 (H6N1)); assay: trimeric HA microarray, transfection set 1
[2] = biological target: recombinant homotrimeric HA, A/Hong Kong/2108/03 H9N2 (Influenza A virus A/Hong Kong/2108/03 (H9N2)); assay: trimeric HA microarray, transfection set 1
[3] = biological target: recombinant homotrimeric HA, A/Netherlands/219/03 H7N7 (Influenza A virus A/Netherlands/219/03 (H7N7)); assay: trimeric HA microarray, transfection set 1
[4] = biological target: recombinant homotrimeric HA, A/South Carolina/1/18 H1N1 (Influenza A virus A/South Carolina/1/18 (H1N1)); assay: trimeric HA microarray, transfection set 1
[5] = biological target: recombinant homotrimeric HA, A/swine/Ontario/01911-2/99 H4N6 (Influenza A virus A/swine/Ontario/01911-2/99 (H4N6)); assay: trimeric HA microarray, transfection set 1
[6] = biological target: recombinant homotrimeric HA, A/California/4/09 H1N1 (Influenza A virus A/California/4/09 (H1N1)); assay: trimeric HA microarray, transfection set 1
[7] = biological target: recombinant homotrimeric HA, A/common magpie/Hong Kong/5052/07 H5N1 (Influenza A virus A/common magpie/Hong Kong/5052/07 (H5N1)); assay: trimeric HA microarray, transfection set 1
[8] = biological target: recombinant homotrimeric HA, A/Wisconsin/67/05 H3N2 (Influenza A virus A/Wisconsin/67/05 (H3N2)); assay: trimeric HA microarray, transfection set 1
[9] = biological target: recombinant homotrimeric HA, A/duck/Yangzhou/02/05 H8N4 (Influenza A virus A/duck/Yangzhou/02/2005 (H8N4)); assay: trimeric HA microarray, transfection set 1
[10] = biological target: recombinant homotrimeric HA, A/chicken/Vietnam/NCVD-016/08 H5N1 (Influenza A virus A/chicken/Vietnam/NCVD-016/08 (H5N1)); assay: trimeric HA microarray, transfection set 1
[11] = biological target: recombinant homotrimeric HA, A/Indonesia/5/05 H5N1 (Influenza A virus A/Indonesia/5/05 (H5N1)); assay: trimeric HA microarray, transfection set 1
[12] = biological target: recombinant homotrimeric HA, A/Egypt/3300-NAMRU3/08 H5N1 (Influenza A virus A/Egypt/3300-NAMRU3/08 (H5N1)); assay: trimeric HA microarray, transfection set 1
[13] = biological target: recombinant homotrimeric HA, A/Japan/305/57 H2N2 (Influenza A virus A/Japan/305/57 (H2N2)); assay: trimeric HA microarray, transfection set 1
[14] = biological target: recombinant homotrimeric HA, A/Anhui/1/05 H5N1 (Influenza A virus A/Anhui/1/05 (H5N1)); assay: trimeric HA microarray, transfection set 1
[15] = biological target: recombinant homotrimeric HA, A/Hong Kong/1073/99 H9N2 (Influenza A virus A/Hong Kong/1073/99 (H9N2)); assay: trimeric HA microarray, transfection set 1
[16] = biological target: recombinant homotrimeric HA, A/Solomon Islands/3/06 H1N1 (Influenza A virus A/Solomon Islands/3/06 (H1N1)); assay: trimeric HA microarray, transfection set 1
[17] = biological target: recombinant homotrimeric HA, A/Vietnam/1203/04 H5N1 (Influenza A virus A/Vietnam/1203/04 (H5N1)); assay: trimeric HA microarray, transfection set 1
[18] = biological target: hemagglutinin (HA) of influenza A/Japan/305/57 H2N2 (Influenza A virus A/Japan/305/1957 (H2N2)) (UniProt P03451); assay: ELISA, inactivated whole virions coated; transfection supernatant set 4
[19] = biological target: hemagglutinin (HA) of influenza A/Wisconsin/67/05 H3N2 (Influenza A virus A/Wisconsin/67/2005 (H3N2)); assay: as above
[20] = biological target: hemagglutinin (HA) of influenza A/Solomon Islands/3/06 H1N1 (Influenza A virus A/Solomon Islands/3/2006 (H1N1)); assay: as above
[21] = biological target: hemagglutinin (HA) of influenza A/Wisconsin/67/05 H3N2 (Influenza A virus A/Wisconsin/67/2005 (H3N2)); assay: ELISA, inactivated whole virions coated; transfection supernatant set 1
[22] = biological target: hemagglutinin (HA) of influenza A/Solomon Islands/3/06 H1N1 (Influenza A virus A/Solomon Islands/3/2006 (H1N1)); assay: as above
[23] = biological target: hemagglutinin (HA) of influenza A/Wisconsin/67/05 H3N2 (Influenza A virus A/Wisconsin/67/2005 (H3N2)); assay: ELISA, inactivated whole virions coated; transfection supernatant set 5
[24] = biological target: hemagglutinin (HA) of influenza A/Solomon Islands/3/06 H1N1 (Influenza A virus A/Solomon Islands/3/2006 (H1N1)); assay: as above
[25] = biological target: hemagglutinin (HA) of influenza A/Japan/305/57 H2N2 (Influenza A virus A/Japan/305/1957 (H2N2)) (UniProt P03451); assay: ELISA, inactivated whole virions coated; transfection supernatant set 3
[26] = biological target: hemagglutinin (HA) of influenza A/Wisconsin/67/05 H3N2 (Influenza A virus A/Wisconsin/67/2005 (H3N2)); assay: as above
[27] = biological target: hemagglutinin (HA) of influenza A/Solomon Islands/3/06 H1N1 (Influenza A virus A/Solomon Islands/3/2006 (H1N1)); assay: as above
[28] = biological target: hemagglutinin (HA) of influenza A/Wisconsin/67/05 H3N2 (Influenza A virus A/Wisconsin/67/2005 (H3N2)); assay: ELISA, inactivated whole virions coated; transfection supernatant set 2
[29] = biological target: hemagglutinin (HA) of influenza A/Solomon Islands/3/06 H1N1 (Influenza A virus A/Solomon Islands/3/2006 (H1N1)); assay: as above
[30] = biological target: hemagglutinin (HA) on live influenza A virus A/Wisconsin/67/05 H3N2 (Influenza A virus A/Wisconsin/67/2005 (H3N2)); assay: cell-based or functional assay
[31] = biological target: hemagglutinin (HA) on live influenza A virus A/California/4/09 H1N1 (Influenza A virus A/California/04/2009 (H1N1)); assay: cell-based or functional assay
[32] = biological target: hemagglutinin (HA) on live influenza A virus A/Solomon Islands/3/06 H1N1 (Influenza A virus A/Solomon Islands/3/2006 (H1N1)); assay: cell-based or functional assay

TCN-202 (2N9) (antibody) gave a Trimeric HA Binding RLU [1] of 13 RLU, a Trimeric HA Binding RLU [2] of 24 RLU and a Trimeric HA Binding RLU [3] of 55 RLU. The Trimeric HA Binding RLU [4] was 32 RLU, the Trimeric HA Binding RLU [5] was 29 RLU and the Trimeric HA Binding RLU [6] was 20 RLU. It also gave a Trimeric HA Binding RLU [7] of 21 RLU, a Trimeric HA Binding RLU [8] of 27 RLU and a Trimeric HA Binding RLU [9] of 26 RLU. It also gave a Trimeric HA Binding RLU [10] of 14 RLU, a Trimeric HA Binding RLU [11] of 57 RLU and a Trimeric HA Binding RLU [12] of 76 RLU. For the same substance, the Trimeric HA Binding RLU [13] was 27 RLU, the Trimeric HA Binding RLU [14] was 20 RLU and the Trimeric HA Binding RLU [15] was 21 RLU. It also gave a Trimeric HA Binding RLU [16] of 67 RLU, a Trimeric HA Binding RLU [17] of 37 RLU and an OD450 [18] of 0.08 OD450. It also gave an OD450 [19] of 0.07 OD450, an OD450 [20] of 0.1 OD450 and an OD450 [21] of 0.07 OD450. For the same substance, the OD450 [22] was 0.07 OD450, the OD450 [23] was 0.07 OD450 and the OD450 [24] was 0.07 OD450. It also gave an OD450 [25] of 0.08 OD450, an OD450 [26] of 0.08 OD450 and an OD450 [27] of 0.1 OD450. For the same substance, the OD450 [28] was 0.07 OD450, the OD450 [29] was 0.08 OD450 and the % Neutralization [30] was 17.8% and 0%. The % Neutralization [31] was 0% and the % Neutralization [32] was 0% and 7%.
